Data: patent publication US20240108738A1 (Bicycle, published 2024)
Numbered stars: 1 amine (or outer) side, 2 acyl side, 3 side chain; on linkers, the order of the positions; unused ones are H or OH. Bridge positions count the residues as written; N and C are the ends. Square brackets hold non-standard residues; d marks the D form. Primed or numbered codes have the meaning given here. Ends that are not written are not given here. * marks the point of attachment. TBMT(3) = 2,4,6-tris(bromomethyl)-s-triazine scaffold, C(c1nc(C[*:2])nc(C[*:3])n1)[*:1]; TBMT = 2,4,6-tris(bromomethyl)-s-triazine, C(c1nc(C[*:2])nc(C[*:3])n1)[*:1]; TBMT″ = 2,4,6-tris(bromomethyl)-s-triazine, scaffold on three Cys; TATA = O=C(CC[*:1])N1CN(C(=O)CC[*:2])CN(C(=O)CC[*:3])C1; hPhe = N[C@@H](CCc1ccccc1)C(=O)O; Pent4ynoyl = C#CCCC(=O)*

B1: BCY15921 (peptide)
peptide: ACDLTTHNCQWGICAK-NH2
modifications: linker 2-9-14 via TATA; not fully specified (residue 16); also: homodimer via shared N-(amine-PEG2)-N-bis(PEG3-azide) linker
notes: scaffold TATA
B2: BCY15922 (peptide)
peptide: ACNLQAPCMQTGKVCAK-NH2
modifications: linker 2-8-15 via TATA (inferred); not fully specified (residue 17); also: AF488 on linker
notes: homodimer of BCY15687; scaffold TATA
B3: BCY15914 (peptide)
peptide: ACRWSVEDPCGAWCAK-NH2
modifications: linker 2-10-14 via TBMT (inferred); not fully specified (residue 16); also: homodimer via shared N-(amine-PEG2)-N-bis(PEG3-azide) linker
notes: homodimer of BCY13883; scaffold TBMT; also called CD16a fluorescent dimer
B4: BCY15915 (peptide)
peptide: ACPPTVYCHPLDCAK-NH2
modifications: linker 2-8-13 via TATA (inferred); not fully specified (residue 15); also: homodimer via shared N-(amine-PEG2)-N-bis(PEG3-azide) linker
notes: homodimer of BCY15685; scaffold TATA; also called CD16a fluorescent dimer
B5: BCY15916 (peptide)
peptide: ACVGLEELGPCSDLCAK-NH2
modifications: linker 2-11-15 via TBMT (inferred); not fully specified (residue 17); also: homodimer via shared N-(amine-PEG2)-N-bis(PEG3-azide) linker
notes: homodimer of BCY13886; scaffold TBMT; also called CD16a fluorescent dimer
B6: BCY21694 (peptide)
peptide: Ac-CRWH[hPhe]SEPCGAWC-NH2
modifications: linker 1-9-13 via TBMT(3)
SMILES: CC(=O)N[C@H]1CSCc2nc3nc(n2)CSC[C@H](NC(=O)[C@@H]2CCCN2C(=O)[C@H](CCC(=O)O)NC(=O)[C@H](CO)NC(=O)[C@H](CCc2ccccc2)NC(=O)[C@H](Cc2c[nH]cn2)NC(=O)[C@H](Cc2c[nH]c4ccccc24)NC(=O)[C@H](CCCNC(=N)N)NC1=O)C(=O)NCC(=O)N[C@@H](C)C(=O)N[C@@H](Cc1c[nH]c2ccccc12)C(=O)N[C@H](C(N)=O)CSC3
notes: scaffold TBMT

Target: T1, human CD16a F176 variant, biotinylated (human, UniProt P08637 17-208, C-terminally biotinylated)
T1 construct: supplier is told for the AlphaScreen assay only; also called F Variant; FcγRIIIA F variant
T1 sequence (P08637 17-208 limits assumed, change not shown): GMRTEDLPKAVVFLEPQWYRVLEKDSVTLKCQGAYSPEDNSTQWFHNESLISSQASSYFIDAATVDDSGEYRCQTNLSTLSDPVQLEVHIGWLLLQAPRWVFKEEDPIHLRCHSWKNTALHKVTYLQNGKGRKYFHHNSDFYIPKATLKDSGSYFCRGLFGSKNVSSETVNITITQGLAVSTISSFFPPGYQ
Assay: SPR
Method: (§1) The SPR analysis was run at 25° C. at a flow rate of 50 μl/min with 60 seconds association and dissociation between 60 and 200 seconds. Data were corrected for DMSO excluded volume effects. All data were double-referenced for blank injections and reference surface using standard processing procedures and data processing and kinetic fitting were performed using Scrubber software, version 2.0c (BioLogic Software). Data were fitted using simple 1:1 binding model allowing for mass transport effects where appropriate.
(§2) For analysis of peptide binding, a Biacore 8k+ instrument was used with a CM5 chip (Cytiva). All experiments were carried out at 25° C. Streptavidin was immobilized on all flow cells by standard amine coupling chemistry. The running buffer was HBS-N(Cytiva, 10 mM HEPES, 0.15 M NaCl, pH 7.4) and the flow rate was 10 μl/min. The carboxymethyl dextran surface was activated with a 1:1 ratio of 0.4 M 1-ethyl-3-(3-dimethylaminopropyl) carbodiimide hydrochloride (EDC)/0.1 M N-hydroxy succinimide (NHS) (Cytiva) for 420s. Streptavidin (ProSpec, cat no. PRO-791) was diluted to 0.2 mg/ml in 10 mM sodium acetate pH 4.5 and was injected onto the chip surface for 600 s. Residual activated groups were blocked with a 420 s injection of 1 M ethanolamine (pH 8.5). The final surface density was 2000-3000 RU. Biotinylated CD16a was diluted to 5 μg/ml in HBS-N and was captured on flow cell 2 only of the streptavidin chip at a flow rate of 10 μl/min to 1500-2500 RU. The buffer was then changed to PBS-P+(Cytiva) supplemented with 0.5-2% DMSO. […] The flow rate was 30 μl/min with 100 s association and 400 s dissociation. Data were corrected for DMSO volume exclusion effects. All data were double-referenced against blank injections and reference surface response using standard processing procedures. Data processing and kinetic fitting was performed using Biacore Insight Evaluation Software with Extended Screening and Characterization Extension (Cytiva). Data were fitted using steady state affinity 1:1 binding model to determine KD. Data were fitted using kinetic 1:1 binding model to determine kinetic constants where appropriate.

Binder	Kd [nM]
ACVGLEELGPCSDLCAK(Pent4ynoyl)-NH2 (linker 2-11-15 via TBMT (inferred), scaffold TBMT) [BCY13886]	8360
ACRWSVEDPC[dA]AWCA-NH2 (linker 2-10-14 via TBMT (inferred), scaffold TBMT) [BCY14956]	2660
ACPPTVYCHPLDCAK (C-terminal Lys(PYA), scaffold TATA) [BCY15685]	7370
ACRWHXSEPCGAWCA (CiRWH[Aze]SEPCiiGAWCiii, scaffold TBMT) [BCY20382]	385
ACRWHXSEPCGAWCA (CiRWH[HyP]SEPCiiGAWCiii, scaffold TBMT) [BCY20383]	470
ACRWHFSEPC[dA]AWCA-NH2 (linker 2-10-14 via TBMT″ (inferred), scaffold TBMT) [BCY20392]	825

Target: T2, human CD16a V176 variant, biotinylated (human, UniProt P08637 17-208, N-terminally biotinylated in-house)
T2 construct: supplier is told for the AlphaScreen assay only; also called V Variant; FcγRIIIA V variant
T2 sequence (P08637 other isoform, or with tags, fused parts or gaps mutant limits assumed): as the sequence (P08637 17-208 limits assumed, change not shown) above, with F160V counted along it
Assay: SPR
Method: as §1, §2

Binder	Kd [nM]
ACRWSVEDPCGAWCAK(Pent4ynoyl)-NH2 (linker 2-10-14 via TBMT (inferred), scaffold TBMT) [BCY13883]	1520
ACVGLEELGPCSDLCAK(Pent4ynoyl)-NH2 (linker 2-11-15 via TBMT (inferred), scaffold TBMT) [BCY13886]	4280
ACRWSVEDPC[dA]AWCA-NH2 (linker 2-10-14 via TBMT (inferred), scaffold TBMT) [BCY14956]	2150
ACPPTVYCHPLDCAK (C-terminal Lys(PYA), scaffold TATA) [BCY15685]	1850
ACRWHXSEPCGAWCA (CiRWH[HyP]SEPCiiGAWCiii, scaffold TBMT) [BCY20383]	202
ACRWHFSEPC[dA]AWCA-NH2 (linker 2-10-14 via TBMT″ (inferred), scaffold TBMT) [BCY20392]	385

Target: T3, human NKp46 on cells (CHO-K1/NKp46 cells; CD56+ NK cells of human PBMCs) (human, UniProt O76036 22-304)
T3 construct: whole, on cells; also called NCR1; CD355
T3 sequence (O76036 22-304): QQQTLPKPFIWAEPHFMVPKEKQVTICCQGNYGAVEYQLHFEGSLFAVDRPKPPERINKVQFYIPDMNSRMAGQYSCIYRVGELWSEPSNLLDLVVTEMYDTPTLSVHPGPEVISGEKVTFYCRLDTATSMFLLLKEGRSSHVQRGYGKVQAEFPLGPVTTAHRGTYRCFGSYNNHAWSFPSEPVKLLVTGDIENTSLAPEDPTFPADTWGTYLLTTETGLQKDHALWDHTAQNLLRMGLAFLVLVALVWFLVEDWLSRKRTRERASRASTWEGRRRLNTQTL
Assay: Kd,app, flow cytometry CHO-K1/NKp46
Method: Plates were then incubated for 1 hour at room temperature in the dark. Post-incubation, the plates were centrifuged at 500 rpm for 5 minutes and supernatant discarded. Samples were then washed twice in 200 μL of 1× phosphate buffer saline (PBS; Gibco™ 10-010-023) at 500 rpm for 5 minutes. Cells were resuspended in 100 μL of PBS and transferred to a new 96-well V-bottom polypropylene plate (Greiner Bio-One 651201). Plates were centrifuged at 500 rpm for 5 minutes and supernatant discarded.
Preparation of samples for flow cytometry: Zombie Violet™ Fixable Viability Dye (BioLegend® 423113) was prepared as a 1:1000 dilution in PBS and 100 μL of viability dye was added to each well and incubated in the dark at 4° C. for 30 minutes. To ensure NKp46 expression, untreated CHO-K1/NKp46 cells were stained with either anti-human NKp46 or an isotype control. Antibody cocktails were prepared by diluting 1.5 μL of either, PE anti-human NKp46 (BioLegend® 331908; clone 9E2) or PE isotype control IgG1, K (BioLegend® 400112), per 100 μL of stain buffer (1×PBS supplemented with 2% FBS). Cells were resuspended in master mix cocktail (100 μL) and incubated at 4° C. for 30 minutes in the dark. Subsequently, cells were washed 3 times in 100 μL of stain buffer for 5 minutes at 500 rpm and supernatant was discarded. Cells resuspended in 200 μL of stain buffer were kept at 4° C. and in the dark until read by BD FACSCelesta™ flow cytometer.
The binding affinity of the bicyclic peptides were calculated using a four-parameter logistic regression using Prism GraphPad software.

Binder	Kd [nM]
B1	1.48
B2	1.48
ACYLPDWLCGDEYCA[dK](Pent4ynoyl)-NH2 (linker 2-9-14 via TATA; not fully specified; also: AF488 label on linker, homodimer of BCY15013; scaffold TATA) [BCY15455]	2.25

Target: T1, human CD16a F176 variant, biotinylated
Assay: AlphaScreen competition vs mouse IgG2a
Method: (§3) Bicyclic peptides were evaluated with a CD16a-IgG competition assay using Perkin Elmer AlphaScreen™ technology. Acceptor beads (Perkin Elmer 6762003) were chemically conjugated via a reductive amination reaction with a mouse IgG2a mAb to link via the free amines, based the manufacturer's protocol. Briefly, beads were centrifuged and resuspended in a 130 mM sodium phosphate buffered solution pH 8.0 containing 0.2 mg mAb, 20 mM NaBH₃CN (Sigma 296945) and 0.06% P20 surfactant (Cytiva Life Sciences, BR-1000-54) and incubated on a rotary shaker at 44° C. for 22 hours. Unbound sites were then blocked by adding a final concentration of 3 mg/ml carboxymethoxylamine (CMO) (Sigma C13408), before continuing shaking incubation for a further 1 hour. Beads were washed by centrifugation and resuspension in 100 mM TRIS-HCl pH 8.0 (Sigma T2694), before a final resuspension in PBS (GIBCO 14190)+0.05% Proclin-300 (Sigma 48912-U), at 5 mg/ml and storage at 4° C. until use.
(§4) The assay was performed in white 384 well plates (PerkinElmer, 6007290) using assay buffer 25 mM HEPES (Sigma-Aldrich, H0887), 100 mM NaCl (Sigma-Aldrich, S5150), 0.5% BSA (Sigma-Aldrich, A3294), 0.05% P20 (Cytiva Life Sciences, BR-1000-54), pH7.4 for all dilutions. […] Mouse IgG2a-conjugated acceptor beads described above were added at a final concentration of 20 ug/ml and incubated at room temperature for 30 minutes under subdued lighting. Streptavidin coated donor beads (PerkinElmer, 6760002) were added a final concentration of 20 ug/ml and incubated at room temperature for 60 minutes under subdued lighting. […] Data was normalised to a high control containing all assay components except Bicyclic peptide and fit to a four-parameter non-linear regression in GraphPad Prism 8.0.2 to generate an IC50 value.

Binder	IC50 [nM]
ACVGLEELGPCSDLCAK(Pent4ynoyl)-NH2 (linker 2-11-15 via TBMT (inferred), scaffold TBMT) [BCY13886]	1830
ACPPTVYCHPLDCAK (C-terminal Lys(PYA), scaffold TATA) [BCY15685]	11000
B3	51.1
B4	27.8
B5	52.6

Target: T2, human CD16a V176 variant, biotinylated
Assay: AlphaScreen competition vs mouse IgG2a
Method: as §3, §4

Binder	IC50 [nM]
ACRWSVEDPCGAWCAK(Pent4ynoyl)-NH2 (linker 2-10-14 via TBMT (inferred), scaffold TBMT) [BCY13883]	2540
ACVGLEELGPCSDLCAK(Pent4ynoyl)-NH2 (linker 2-11-15 via TBMT (inferred), scaffold TBMT) [BCY13886]	3190
ACPPTVYCHPLDCAK (C-terminal Lys(PYA), scaffold TATA) [BCY15685]	3480
B3	308
B4	32.5
B5	113

Target: T4, CD16a/FCgRIIIa (F158 variant) on HEK293 cells, Terbium-labelled (UniProt P08637 17-254, limits assumed, Terbium donor dye)
T4 construct: whole, on cells; also called cellular CD16a
T4 sequence (P08637 17-254 limits assumed, change not shown): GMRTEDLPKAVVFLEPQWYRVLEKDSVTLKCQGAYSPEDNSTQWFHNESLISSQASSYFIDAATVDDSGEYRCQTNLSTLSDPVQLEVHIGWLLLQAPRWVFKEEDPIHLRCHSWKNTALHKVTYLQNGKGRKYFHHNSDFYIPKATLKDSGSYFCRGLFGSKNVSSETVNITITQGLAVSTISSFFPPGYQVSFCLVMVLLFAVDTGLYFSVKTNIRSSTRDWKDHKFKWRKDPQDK
Assay: HTRF competition vs IgG-d2 on HEK293 cells
Method: Binding to cellular CD16a/FCgRIIIa (F158 variant) was determined through competition with IgG for binding to CD16a receptors expressed on HEK293 cells.
The experimental procedure followed the manufacturer's instructions detailed in the product information for the CD16 (FCγRIIIa) kit (Cisbio-6FR3APAG). […] Bicycle peptides were dispensed using Echo compound handler at a top concentration of 20 μM. The competing unlabeled antibodies and bicyclic peptides were added in a three-fold dilution series in Tag-lite buffer into PerkinElmer-ProxiPlate-384 Plus.
The HEK293 cell expressing Terbium-labelled CD16a were thawed and washed in PBS and added to the wells of PerkinElmer-ProxiPlate-384 Plus containing the competitor compounds. […] The data was plotted in Graph pad prism and IC50-values were determined to indicate unlabeled antibody or bicyclic peptide competition for cellular binding to the CD16a receptor.

Binder	IC50 [nM]
ACRWSVEDPCGAWCA-NH2 (linker 2-10-14 via TBMT; also: scaffold TATA, TATB or TBMT, scaffold TBMT) [BCY14950]	2040
ACRWSVEDPC[dA]AWCA-NH2 (linker 2-10-14 via TBMT (inferred), scaffold TBMT) [BCY14956]	1400
ACPPTVYCHPLDCAK (C-terminal Lys(PYA), scaffold TATA) [BCY15685]	7560
ACRWHXSEPCGAWCA (CiRWH[Aze]SEPCiiGAWCiii, scaffold TBMT) [BCY20382]	749
ACRWHXSEPCGAWCA (CiRWH[HyP]SEPCiiGAWCiii, scaffold TBMT) [BCY20383]	1110
ACRWSVEXPCGAWCA (CiRWSVE[Gla]PCiiGAWCiii, scaffold TBMT) [BCY16608]	1800
ACRWHXSEPCGAWCA (CiRWH[4MePhe]SEPCiiGAWCiii, scaffold TBMT) [BCY20380]	898
ACRWHXSEXCGAWCA (CiRWH[HPhe]SE[Aze]CiiGAWCiii, scaffold TBMT) [BCY21689]	1240
CRWH[hPhe]SEPCGAWC-NH2 (linker 1-9-13 via TBMT″, scaffold TBMT) [BCY21693]	377
B6	166
